Results: the Human Domainome abundance scans (Beltran et al. 2025)

B1: Protein S100-G, residues 1 to 79; numbered along this chain, P02633 (parent)
chain: MSAKKSPEELKGIFEKYAAKEGDPNQLSKEELKLLLQTEFPSLLKGPSTLDELFEELDKNGDGEVSFEEFQVLVKKISQ

Variants of: B1
Assay: abundance fitness (aPCA) (normalised: wild type 0, dead -1); higher = more abundant; growth selection in yeast, the domain comes from the species named
Conditions: Bos taurus

Abundance fitness of substitutions, site by site:
L50: A -0.044; N -0.094; G -0.078; Y 0.024; F -0.026; S -0.034; M -0.01; P -0.059; T -0.013; R -0.044; V 0.082; C 0.042; D -0.068; E 0.007; I 0.009; K -0.001; Q -0.028
E56: C 0.065; G -0.006; I -0.208; P 0.094; Q -0.053; A -0.042; M -0.045; S 0.002; Y -0.06; T 0.001; K -0.071; W -0.076; L -0.082; R -0.02; H -0.005
L53: H 0.026; F 0.077; D 0.053; I 0.041; K -0.033; P 0.033; G -0.065; Y -0.036; A 0.055; T 0.036; R -0.031; Q 0.028; V 0.028; E 0.031; C -0.048; N 0.109; W 0.013; M 0.015
K59: A 0.055; E -0.005; D -0.022; G 0.093; C 0.021; H 0.013; F 0.098; Q -0.009; M 0.085; N 0.009; I -0.105; L 0.052
D51: K -0.043; F -0.121; I -0.08; W -0.142; R -0.07; A -0.032; M 0.005; L -0.072; S -0.032; N 0.032; C 0.011; Q -0.091; P 0.032; E -0.07; Y -0.145; V -0.032; G -0.044
F54: W 0.04; E -0.033; H -0.054; Q 0.004; R -0.093; L 0.04; T 0.03; I 0.051; S 0.023; C -0.004; V -0.015; M 0.007; P -0.073; N 0.039; G -0.038; A -0.007; K -0.048; Y 0.064; D 0.035
L43: F -0.02; Y 0.015; I -0.012; N -0.094; R -0.077; P -0.032; V 0.057; W -0.035; A 0.013; D -0.119; Q 0.028; H -0.034; S 0.023; T -0.07; E 0.105; K -0.001; C -0.018; M 0.011
E55: H 0.005; P 0.012; K -0.047; Y 0.058; A -0.045; V -0.012; W 0.011; T 0.005; D 0.033; F 0.055; M 0.004; L 0.04; I -0.035; Q 0.031; S -0.024; C -0.014; G 0.02; R 0.001
S48: K 0.055; A 0; W -0.048; I 0.005; Y 0.016; D -0.138; E 0.042; V -0.032; R 0.038; G -0.042; Q 0.086; F -0.062; L -0.01; T -0.029; M -0.056; H -0.023; C -0.156; P 0.015
K45: V -0.029; D 0.07; Y -0.062; P 0.003; H 0.003; C -0.066; T -0.005; N -0.022; L -0.018; M 0.002; Q 0.042; A -0.442; W -0.012; R 0.002; E 0.005
S42: I -0.035; R -0.056; F -0.049; N -0.009; G -0.023; K 0.061; D -0.046; Y -0.047; H -0.087; P 0.008; W -0.098; E 0.116; V -0.058; A -0.011; T 0.084; C -0.074; M -0.07
L44: I 0.033; V 0.02; F -0.006; C 0.002; R -0.024; E 0.058; W 0.115; T 0.035; Q -0.037; H -0.035; D 0.033; N 0.058; A 0.071; S -0.047; M -0.059; P 0.08; G -0.047; Y 0.033
G46: T 0.007; H 0.039; P -0.041; R -0.008; I 0; F -0.005; A 0.042; C -0.023; E -0.025; S -0.017; L 0.02; Y 0.011; Q -0.008; W -0.087; M 0.053; D 0.028; N 0.037; K -0.001
T49: S 0.018; F 0.032; Q 0.04; R -0.057; P -0.051; C -0.12; I -0.021; H 0.047; K -0.103; N -0.109; A 0.007; W -0.076; D -0.08; G -0.043; E -0.026; Y 0; M -0.081
P47: W -0.01; K -0.09; A 0.094; M -0.004; T 0.085; G -0.023; D -0.02; Y 0.042; F -0.015; R -0.05; V 0.082; C 0.04; S 0.073; Q 0.051; L -0.027
E52: V -0.024; A -0.005; C -0.122; D -0.056; F -0.068; H 0.04; P -0.037; M -0.031; N -0.002; Y -0.108; Q -0.023; S -0.009; I -0.042; T 0.064; L -0.001; K 0.022; W -0.084; R -0.046; G 0.026
L57: W 0.032; K -0.071; E -0.044; F -0.014; H -0.031; G -0.117; N -0.042; D 0.081; S 0.013; I 0.156; M 0.054; A 0.079; P -0.012; C 0.024; Q 0.021; Y 0.03; R -0.015
F40: M 0.047; T -0.106; W 0.008; V -0.065; S -0.16; Q -0.178; Y -0.011; P -0.889; N -0.084
D58: L 0.054; A -0.107; K -0.008; Y -0.008; H -0.096; W -0.027; N -0.053; G 0.007; T 0.021; M -0.026; C -0.022; P -0.078; V -0.058; E -0.109; S 0.025; R -0.072; F 0.054; I 0.027; Q 0.068
P41: S 0.055; G 0.002; D -0.021; M -0.091; A 0.079; L -0.072; R -0.059; F -0.019; V -0.129; N -0.06; W -0.115; K 0.017; E -0.191; Q 0.025; Y -0.037; C -0.159; H 0.066; T 0.001
